± gives the uncertainty stated by the source.
B1: POU domain, class 4, transcription factor 1, residues 266 to 347; numbered along this chain, Q01851 (parent)
chain: RELEAFAERFKQRRIKLGVTQADVGSALANLKIPGVGSLSQSTICRFESLTLSHNNMIALKPILQAWLEEAEGAQREKMNKP

Variants of: B1
Test: abundance fitness (aPCA) (normalised: wild type 0, dead -1); higher = more abundant; growth selection in yeast, the domain comes from the species named
Conditions: Homo sapiens

Variant	abundance fitness
E48T	-0.954 ± 0.08
E48I	-1.28 ± 0.17
E48H	-1.12 ± 0.12
E48A	-1.1 ± 0.094
E48S	-0.979 ± 0.063
S42N	0.022 ± 0.082
S42H	-0.152 ± 0.13
S42M	-0.042 ± 0.073
I63V	0.002 ± 0.046
I63Q	-0.247 ± 0.075
I63R	-0.154 ± 0.04
I63L	-0.113 ± 0.061
E69V	-0.073 ± 0.043
E69N	-0.022 ± 0.08
E69S	-0.054 ± 0.052
E69G	-0.207 ± 0.043
E69R	-0.111 ± 0.038
E69Q	-0.018 ± 0.07
L68H	-0.329 ± 0.22
L68G	-0.821 ± 0.11
L68W	-0.626 ± 0.1
L68R	-0.774 ± 0.12
L68Q	-0.568 ± 0.095
L68C	-0.29 ± 0.08

Variant	abundance fitness
K16D	0.029 ± 0.049
K16L	-0.071 ± 0.025
K16A	0.085 ± 0.034
K16N	0.011 ± 0.035
V36C	-0.225 ± 0.18
V36D	-0.463 ± 0.42
E2R	-0.266 ± 0.026
E2F	-0.245 ± 0.07
E2L	-0.332 ± 0.032
E2S	-0.139 ± 0.03
E2N	0.025 ± 0.049
I33L	0.024 ± 0.028
I33K	-0.203 ± 0.042
I33E	-0.22 ± 0.033
I33Y	-0.21 ± 0.053
I33M	-0.056 ± 0.036
I33G	-0.282 ± 0.025
F10L	-0.515 ± 0.031
F10P	-0.908 ± 0.08
F10I	-0.676 ± 0.065
F10C	-0.867 ± 0.071
F10G	-0.897 ± 0.035
Q65D	0.01 ± 0.041
Q65T	-0.06 ± 0.029

Variant	abundance fitness
Q65M	-0.056 ± 0.032
Q65R	-0.162 ± 0.023
Q65C	-0.14 ± 0.041
Q65A	-0.041 ± 0.028
Q65K	-0.049 ± 0.036
Q65N	-0.078 ± 0.044
N80I	-0.121 ± 0.14
N80E	0.078 ± 0.053
N80F	-0.043 ± 0.065
N80W	-0.089 ± 0.045
I58V	-0.035 ± 0.048
I58H	-0.169 ± 0.17
I58W	-0.107 ± 0.057
I58D	-0.167 ± 0.091
D23V	-0.152 ± 0.05
D23T	-0.118 ± 0.066
D23W	-0.405 ± 0.098
D23H	-0.156 ± 0.1
D23Y	-0.115 ± 0.094
D23Q	0.016 ± 0.063
R14I	-0.866 ± 0.082
R14L	-0.768 ± 0.045
Q75D	-0.045 ± 0.072
Q75V	-0.025 ± 0.041

Variant	abundance fitness
A22C	-0.098 ± 0.27
A22V	-0.242 ± 0.095
A22Y	0.043 ± 0.12
S49E	0.045 ± 0.039
S49Q	0.052 ± 0.043
S49L	-0.181 ± 0.03
S49W	-0.541 ± 0.053
A7R	-0.594 ± 0.028
A7M	-0.395 ± 0.042
L28Y	-0.439 ± 0.066
L28N	-0.459 ± 0.071
L28H	-0.332 ± 0.061
L28T	-0.312 ± 0.042
G25Q	-0.001 ± 0.065
G25L	-0.038 ± 0.048
G25K	0.009 ± 0.083
G25W	-0.007 ± 0.055
E4G	-0.166 ± 0.034
E4P	-0.361 ± 0.078
T51G	-0.021 ± 0.039
T51S	0.018 ± 0.031
T51M	-0.004 ± 0.044
T51P	-0.877 ± 0.085
H54L	0.046 ± 0.04

Variant	abundance fitness
H54I	0.091 ± 0.1
H54A	0.01 ± 0.038
H54F	-0.02 ± 0.1
H54R	0.053 ± 0.029
S53D	-0.136 ± 0.075
S53P	0.02 ± 0.055
S53K	-0.269 ± 0.073
S53G	-0.039 ± 0.038
S26T	-0.095 ± 0.06
S26P	-0.221 ± 0.081
E72N	-0.35 ± 0.22
E72R	-0.421 ± 0.051
E72D	-0.259 ± 0.11
E72H	-0.456 ± 0.18
E72T	-0.244 ± 0.085
R46W	-0.391 ± 0.067
R46Y	-0.307 ± 0.17
R46M	0.128 ± 0.084
R46E	0.055 ± 0.061
F47I	-0.917 ± 0.28
F47Y	-0.272 ± 0.12
L64A	-0.513 ± 0.07
L64F	-0.337 ± 0.34
L64S	-0.793 ± 0.12

Variant	abundance fitness
L64M	-0.323 ± 0.12
R9C	-0.007 ± 0.15
R9I	-0.004 ± 0.29
R9T	0.058 ± 0.12
R9D	-0.122 ± 0.23
R9M	0.005 ± 0.12
R9K	-0.143 ± 0.16
R9F	-0.178 ± 0.13
I15S	-0.138 ± 0.029
I15C	-0.048 ± 0.049
I15E	0.02 ± 0.054
I15M	0.005 ± 0.038
I15L	-0.022 ± 0.028
I15Y	-0.332 ± 0.046
L17Y	-0.33 ± 0.038
L17M	-0.072 ± 0.037
L17G	-0.802 ± 0.082
W67G	-0.727 ± 0.071
W67P	-0.646 ± 0.11
W67R	-0.639 ± 0.073
W67A	-0.406 ± 0.069
G18M	-0.639 ± 0.48
G18R	-0.231 ± 0.15
A27H	-0.07 ± 0.12

Variant	abundance fitness
A27M	-0.175 ± 0.11
A27F	-0.284 ± 0.16
N30W	-0.144 ± 0.064
N30L	-0.084 ± 0.088
N30S	0.091 ± 0.08
N30I	0.054 ± 0.13
G35A	-0.397 ± 0.26
G35F	0.122 ± 0.37
G35W	-0.326 ± 0.28
G35D	-0.142 ± 0.24
G35R	-0.056 ± 0.12
Q21A	-0.044 ± 0.046
Q21K	0.062 ± 0.092
Q21H	0.006 ± 0.1
Q21S	-0.09 ± 0.058
Q21W	-0.141 ± 0.063
A71T	0.062 ± 0.086
A71M	-0.005 ± 0.11
A29G	0.132 ± 0.1
A29V	0.088 ± 0.35
L52I	-0.496 ± 0.29
L52S	-0.557 ± 0.067
L52T	-0.472 ± 0.064
